The data set deals with the molecule itself. The experiment in a line: SDS-PAGE without mercaptoethanol, subunit-subunit disulfide-linked homodimer.

B1: modified water-soluble PQQGDH Ser415Cys (Acinetobacter calcoaceticus) (enzyme)
chain: DVPLTPSQFAKAKSENFDKKVILSNLNKPHALLWGPDNQIWLTERATGKILRVNPESGSVKTVFQVPEIVNDADGQNGLLGFAFHPDFKNNPYIYISGTFKNPKSTDKELPNQTIIRRYTYNKSTDTLEKPVDLLAGLPSSKDHQSGRLVIGPDQKIYYTIGDQGRNQLAYLFLPNQAQHTPTQQELNGKDYHTYMGKVLRLNLDGSIPKDNPSFNGVVSHIYTLGHRNPQGLAFTPNGKLLQSEQGPNSDDEINLIVKGGNYGWPNVAGYKDDSGYAYANYSAAANKSIKDLAQNGVKVAAGVPVTKESEWTGKNFVPPLKTLYTVQDTYNYNDPTCGEMTYICWPTVAPSSAYVYKGGKKAITGWENTLLVPSLKRGVIFRIKLDPTYCTTYDDAVPMFKSNNRYRDVIASPDGNVLYVLTDTAGNVQKDDGSVTNTLENPGSLIKFTYKAK
modifications: Cys415 of each subunit joined in an inter-subunit disulfide bond
notes: also called modified enzyme Ser415Cys; Ser4l5Cys
Turning to B1, the binding result is “binds”.

These data come from patent US20040191883A1 (ULTIZYME INTERNATIONAL, published 2004).
